Two substances from US10414821 can be followed below.

The target of assay [1] is PD-1 (UniProt Q15116). The assay can be described thus: ELISA.
Target sequence in this assay (Q15116 25-170): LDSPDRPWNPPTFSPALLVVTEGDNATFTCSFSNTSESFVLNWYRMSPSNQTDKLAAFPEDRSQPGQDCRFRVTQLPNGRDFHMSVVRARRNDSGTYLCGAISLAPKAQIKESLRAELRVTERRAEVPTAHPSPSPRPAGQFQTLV
The target of assay [2] is PD-1 (UniProt Q15116). The assay can be described thus: blocking ELISA (PD-1/PD-L1).
Target sequence in this assay (Q15116 25-167): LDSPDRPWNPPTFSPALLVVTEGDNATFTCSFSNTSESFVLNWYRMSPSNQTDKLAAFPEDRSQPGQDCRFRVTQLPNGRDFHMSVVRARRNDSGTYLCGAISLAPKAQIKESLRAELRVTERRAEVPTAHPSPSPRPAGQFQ

As usually defined, the EC50 is the concentration that produces a half-maximal response. Higher therefore signals a need for much substance. With MK3475, the EC50 with PD-1 [1] was 0.08 nM.

Usually IC50 stands for the midpoint of a concentration-inhibition curve. High values mean weaker potency, low ones greater potency. In the assay with PD-1 [2], MK-3475 yielded an IC50 of 0.603 nM.
